We go through five molecules from patent EP4671269A1 (Akeso Biopharma Co., Ltd., dated 2025).

Test [1] has as its target T1, human TIGIT-mFc (human; mouse, UniProt Q495A1 22-141, limits assumed).
T1 construct: not shown: Fc protein fragment of mouse IgG
T1 sequence (looked up): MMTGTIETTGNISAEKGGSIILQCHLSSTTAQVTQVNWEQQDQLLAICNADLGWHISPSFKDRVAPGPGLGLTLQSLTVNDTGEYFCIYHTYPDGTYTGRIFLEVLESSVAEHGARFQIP
Put plainly: competitive ELISA vs CD155-hFc-Biotin, TIGIT-mFc coated. On the technique in general: In an ELISA, binding on a coated surface is turned into a signal by an enzyme label.

For test [2], the target named is T1, human TIGIT-mFc. As to the kind of experiment: indirect ELISA, TIGIT-mFc captured on plate.
Test [3] has as its target T2, TIGIT on the cell membrane (293T-TIGIT, Jurkat-TIGIT-NFAT-Luc cells) (human, UniProt Q495A1 22-244).
T2 construct: whole, on cells; also called cell membrane surface antigen TIGIT
T2 sequence (looked up): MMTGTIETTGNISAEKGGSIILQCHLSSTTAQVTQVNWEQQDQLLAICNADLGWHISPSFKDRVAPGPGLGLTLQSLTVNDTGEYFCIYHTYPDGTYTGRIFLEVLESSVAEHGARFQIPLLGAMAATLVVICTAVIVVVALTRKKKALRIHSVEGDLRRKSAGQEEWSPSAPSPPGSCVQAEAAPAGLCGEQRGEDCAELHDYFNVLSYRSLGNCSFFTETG
Put plainly: FACS, 293T-TIGIT cells. On the technique in general: A flow cytometer gives signals particle by particle.

In test [4] the target is T2, TIGIT on the cell membrane (293T-TIGIT, …). As to the kind of experiment: competitive FACS vs CD155-mFc, 293T-TIGIT cells.
The target is the same in test [5]. As to the kind of experiment: competitive FACS vs CD112-mFc, 293T-TIGIT cells.
The target of test [6] is T3, TGF-β1 (human, UniProt P01137 279-390).
T3 construct: also called human TGF-β1; TGF-β1 protein
As to the kind of experiment: indirect ELISA, TGF-β1 coated.

Test [7] has as its target T3, TGF-β1. As to the kind of experiment: indirect ELISA, TGF-β1 coated. This is another data set of the same source.
Test [8] addresses T3, TGF-β1. As to the kind of experiment: competitive ELISA vs TGF-βRII-His-Biotin, TGF-β1 coated.
The target in another test is T4, human TIGIT-hFc (human, UniProt Q495A1 22-141, limits assumed).
T4 construct: Screening antigen of the hybridoma ELISA; not shown: Fc protein fragment of human IgG
T4 sequence (looked up): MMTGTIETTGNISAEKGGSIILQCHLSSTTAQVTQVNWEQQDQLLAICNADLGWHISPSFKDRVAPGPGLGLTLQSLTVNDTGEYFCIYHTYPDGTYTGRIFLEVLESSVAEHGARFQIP
Put plainly: indirect ELISA, hybridoma screening.

B1: RG6058(hG4) (antibody, V domains shown)
VH: EVQLQQSGPGLVKPSQTLSLTCAISGDSVSSNSAAWNWIRQSPSRGLEWLGKTYYRFKWYSDYAVSVKGRITINPDTSKNQFSLQLNSVTPEDTAVFYCTRESTTYDLLAGPFDYWGQGTLVTVSS
VL: not shown
notes: Positive control anti-TIGIT antibody from CN108290946A; also called RG6058(hG4WT)
Turning to B1, the EC50 with human TIGIT-mFc [1] stood at 1.68 nM; with human TIGIT-mFc [2], 0.055 nM; in test [3], 1.61 nM.

B2: Tiragolumab (antibody, human IgG1, kappa, V domains shown)
VH: EVQLQQSGPGLVKPSQTLSLTCAISGDSVSSNSAAWNWIRQSPSRGLEWLGKTYYRFKWYSDYAVSVKGRITINPDTSKNQFSLQLNSVTPEDTAVFYCTRESTTYDLLAGPFDYWGQGTLVTVSS
VL: not shown
notes: Positive control anti-TIGIT antibody; also called RG6058(hG1WT)
In the case of B2, the EC50 was 1.28 nM in test [4] and 0.837 nM in test [5].

B3: 26B12H2L2(hG4DM) (antibody, human IgG4 S228P, kappa, F234A L235A)
heavy: not shown
light: DIQMTQSPSSLSASVGDRVTITCRSSQHVSTALAWYQQKPGKSPKLLIYSASSRYSGVPDRFSGSGSGTDFTFTISSLQPEDFATYYCQQHYITPWTFGGGTKLEIKRTVAAPSVFIFPPSDEQLKSGTASVVCLLNNFYPREAKVQWKVDNALQSGNSQESVTEQDSKDSTYSLSSTLTLSKADYEKHKVYACEVTHQGLSSPVTKSFNRGEC
notes: Humanized anti-TIGIT antibody, IgG4 with F234A and L235A (EU numbering)
For the molecule B3, the EC50 with human TIGIT-mFc [1] amounted to 1.42 nM.

B4: TGF-βRII-mFc (Fc fusion, UniProt P37173 24-159, looked up)
chain: IPPHVQKSVNNDMIVTDNNGAVKFPQLCKFCDVRFSTCDNQKSCMSNCSITSICEKPQEVCVAVWRKNDENITLETVCHDPKLPYHDFILEDAASPKCIMKEKKKPGETFFMCSCSSDECNDNIIFSEEYNTSNPD
notes: also called TGF-βR2-mFc; not shown: Fc protein fragment of mouse IgG
Consider B4, for which the EC50 was determined as 0.356 nM with TGF-β1 [6], 0.271 nM with TGF-β1 [7] and 6.47 nM with TGF-β1 [8].

B5: 26B12 (antibody, V domains shown)
VH: EVQLQESGPGLVKPSQSLSLTCTVTGHSFTSDYAWNWIRQFPGNRLEWMGYISYSDSTNYNPSLKSRISITRDTSKNQFFLQMNSVTTEDTATYYCARLDYGNYGGAMDYWGQGTSVTVSS
VL: DIVLTQSHEFMSTSLRDRVSITCKSSQHVSTAVAWYQQKPGQSPKLLIYSASYRYTGVPDRFTGSGSGTDFTFTISSVKAEDLAVYYCQQHYITPWTFGGGTKLEIK
notes: Murine hybridoma antibody; also called anti-TIGIT antibody 26B12; monoclonal antibody secreted by hybridoma cell line LT019
In the case of B5, the binding result with human TIGIT-hFc is recorded as “binds”.

What is called EC50 is the concentration at which the effect is half-maximal. The low end stands for an effect from little substance, the high end for a need for much substance.
